Target: T1, NINJA (Arabidopsis thaliana, UniProt Q9SV55)
T1 construct: expressed in transfected cells; host or cells: Nicotiana benthamiana leaves (Agrobacterium infiltration)
Assay: BiFC interaction with NINJA in Nicotiana benthamiana leaves
Type: cell-based
Details: in plants (FIG. 8)
Excerpt: The binary BiFC-Gateway YFP vectors pDEST-VYNE(R)^GW (Venus aa 1-173) and pDEST-VYCE(R)^GW (Venus aa 156-239) with N-terminal fusions, were used to construct the following vectors; pDESTnYFP-BZR1, pDESTnYFP-NINJA, pDESTnYFP-PPD1, pDESTcYFP-BZR1, pDESTcYFP-PPD1, pDESTcYFP-PPD1Δppd, pDESTcYFP-PPD1Δtify and pDESTcYFP-PPD1Δjas*. For transient in planta expression of proteins interacting with PPD1 or BZR, NINJA and TPL were Gateway® sub-cloned into pRSh1, to construct pRSh1-NINJA and pRSh1-TPL. […] When expressed these constructs produced proteins listed in sequences 60, 62, 70 71 72 73 74 75 76 77 78 79: including TOPLESS (TPL), NINJA, Bimolecular Fluorescence (BiFC) nYFP, BiFC cYFP, BiFC nYFP-NINJA, BiFC nYFP-BZR1, BiFC cYFP-PPD1, BiFC cYFP-NINJA, BiFC cYFP-BZR1, BiFC cYFP-PPD1-ppd, BiFC cYFP-PPD1-tify, BiFC cYFP-PPD1-jas*.
Transient BiFC experiments were performed using combinations of pDESTnYFP and pDESTcYFP plasmids, with or without plasmids for the expression of NINJA (pRSh1-NINJA) or TPL (pRSh1-TPL) and Agrobacterium-infiltration of Nicotiana benthamiana leaves. […] Two hours prior to sampling for microscopic fluorescence observations leaves were infiltrated with a 1 μg/ml DAPI solution to stain nuclei. YFP fluorescence and DAPI staining was detected using an Olympus Fluoview FV10i confocal laser scanning microscope. […]

T1 sequence (Q9SV55 with tags, fused parts or gaps): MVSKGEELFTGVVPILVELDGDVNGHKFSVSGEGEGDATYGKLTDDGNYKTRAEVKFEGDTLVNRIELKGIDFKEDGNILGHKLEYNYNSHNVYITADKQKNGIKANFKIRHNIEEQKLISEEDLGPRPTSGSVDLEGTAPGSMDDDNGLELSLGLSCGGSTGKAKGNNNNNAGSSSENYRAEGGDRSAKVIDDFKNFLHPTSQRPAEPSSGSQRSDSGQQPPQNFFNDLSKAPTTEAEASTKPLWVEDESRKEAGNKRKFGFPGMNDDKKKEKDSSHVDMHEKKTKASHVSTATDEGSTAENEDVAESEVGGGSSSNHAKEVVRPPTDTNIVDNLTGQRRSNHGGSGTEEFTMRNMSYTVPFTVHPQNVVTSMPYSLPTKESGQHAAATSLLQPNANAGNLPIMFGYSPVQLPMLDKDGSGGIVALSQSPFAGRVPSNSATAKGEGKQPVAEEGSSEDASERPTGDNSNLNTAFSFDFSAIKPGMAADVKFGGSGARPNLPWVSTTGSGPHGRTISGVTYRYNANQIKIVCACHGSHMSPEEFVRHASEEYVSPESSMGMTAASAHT

B1: PPD1: PEAPOD 1 protein of Arabidopsis thaliana, SEQ ID NO: 1 (protein, listed as Arabidopsis thaliana)
chain: MDVGVSPAKSILAKPLKLLTEEDISQLTREDCRKFLKDKGMRRPSWNKSQAIQQVLSLKALYEPGDDSGAGIFRKILVSQPVNPPRVTTTLIEPSNELEACGRVSYPEDNGACHRMDSPRSAEFSGGSGHFVSEKDGHKTTISPRSPAETSELVGQMTIFYSGKVNVYDGIPPEKARSIMHFAANPIDLPENGIFASSRMISKLISKEKMMELPQKGLEKANSSRDSGMEGQANRKVSLQRYREKRKDRKFSKAKKCPGVASSSLEMFLNCQPRMKAAYSQNLGCTGSPLHSQSPESQTKSPNLSVDLNSEGI
interaction with NINJA: interacted with NINJA in plants

From patent US10487337B2, “Methods for monocot plant improvement” (Agresearch Limited, priority 2014, dated 2019)
